As a reminder, the Kd is the constant that tells how readily two partners part at equilibrium. The low end stands for higher affinity, the high end for lower affinity.

The values below come from publication PMC8615163.

Test [1] addresses HIS-tagged integrin αvβ3 (ACRO Biosystems IT3-H52E3) (UniProt P06756). Nature of the test: radioligand binding; 125I-labeled NP-011 (0–100 μg/mL) incubated in plates coated with HIS-tagged integrin; 50 mM Tris, 5 mM MgCl2, 100 mM NaCl, 1% BSA, pH 7.4; Kd by nonlinear curve fitting (Prism); done by Gifford Bioscience.
Test [2] concerns the target HIS-tagged integrin αvβ5 (ACRO Biosystems IT5-H52W5) (UniProt P06756). The test is described as above.
The target is the same in test [3]. The test is described as follows: radioligand binding; binding affinity assay of MFG-E8 to integrin αVβ5 (Supplementary Figure S2); told with the radioligand binding assays, its own methods not shown.

On to “NP-011 (truncated form of MFG-E8, EGF + C1 domain) (from UniProt Q08431 24-387) (domain or fragment)”, for which the equilibrium dissociation constant (Kd) in test [1] was 50.4 nM; in test [2], 2 nM.

B1: Milk fat globule-EGF factor 8 (MFG-E8) (natural protein)
chain: LDICSKNPCHNGGLCEEISQEVRGDVFPSYTCTCLKGYAGNHCETKCVEPLGLENGNIANSQIAASSVRVTFLGLQHWVPELARLNRAGMVNAWTPSSNDDNPWIQVNLLRRMWVTGVVTQGASRLASHEYLKAFKVAYSLNGHEFDFIHDVNKKHKEFVGNWNKNAVHVNLFETPVEAQYVRLYPTSCHTACTLRFELLGCELNGCANPLGLKNNSIPDKQITASSSYKTWGLHLFSWNPSYARLDKQGNFNAWVAGSYGNDQWLQVDLGSSKEVTGIITQGARNFGSVQFVASYKVAYSNDSANWTEYQDPRTGSSKIFPGNWDNHSHKKNLFETPILARYVRILPVAWHNRIALRLELLGC
Turning to B1, the Kd in test [3] is 25.4 nM.
